# B1: PGT-125 (antibody, V domains shown)
# VH: QSQLQESGPRLVEASETLSLTCNVSGESTGACTYFWGWVRQAPGKGLEWIGSLSHCQSFWGSGWTFHNPSLKSRLTISLDTPKNQVFLKLTSLTAADTATYYCARFDGEVLVYNHWPKPAWVDLWGRGIPVTVSS
# VL: QSALTQPPSASGSPGQSITISCNGTATNFVSWYQQFPDKAPKLIIFGVDKRPPGVPDRFSGSRSGTTASLTVSRLQTDDEAVYYCGSLVGNWDVIFGGGTTLTVL
# B2: PGT-123 (antibody, V domains shown)
# VH: QLHLQESGPGLVKPPETLSLTCSVSGASINDAYWSWIRQSPGKRPEWVGYVHHSGDTNYNPSLKRRVTFSLDTAKNEVSLKLVDLTAADSATYFCARALHGKRIYGIVALGELFTYFYMDVWGKGTAVTVSS
# VL: SSMSVSPGETAKISCGKESIGSRAVQWYQQKPGQPPSLIIYNNQDRPAGVPERFSASPDFRPGTTATLTITNVDAEDEADYYCHIYDARGGTNWVFDRGTTLTVL
# Columns and labels:
# Test in all cases: cell-based or functional assay
# [1] = target: Env of the clade B HIV-1 pseudoviruses of the cross-clade 162-pseudovirus panel (n = 31)
# [2] = target: Env of the clade C HIV-1 pseudoviruses of the cross-clade 162-pseudovirus panel (n = 27)
# [3] = target: Env of the clade D HIV-1 pseudoviruses of the cross-clade 162-pseudovirus panel (n = 25)
# [4] = target: HIV-1 93UG077 envelope glycoprotein (Env) (HIV-1)
# [5] = target: HIV-1 APV17 envelope glycoprotein (Env) (HIV-1)
# [6] = target: HIV-1 APV6 envelope glycoprotein (Env) (HIV-1)
# [7] = target: HIV-1 Env of isolate 92WR020 (HIV-1)
# [8] = target: HIV-1 Env of isolate 92WR024 (HIV-1)
# [9] = target: HIV-1 Env of isolate 93UG077 (HIV-1)
# [10] = target: HIV-1 Env of isolate MGRM-A-012 (HIV-1)
# [11] = target: HIV-1 Env of isolate MGRM-A-013 (HIV-1)
# [12] = target: HIV-1 JR-CSF Env D417A (HIV-1 (isolate JR-CSF)) (UniProt P20871)
# [13] = target: HIV-1 JR-CSF Env F210A (HIV-1 JR-CSF) (UniProt P20871)
# [14] = target: HIV-1 JR-CSF Env H330A (HIV-1 isolate JR-CSF) (UniProt P20871)
# [15] = target: HIV-1 JR-CSF Env I307A (HIV-1 JR-CSF) (UniProt P20871)
# [16] = target: HIV-1 JR-CSF Env I309A (HIV-1 JR-CSF) (UniProt P20871)
# [17] = target: HIV-1 JR-CSF Env I326A (HIV-1 isolate JR-CSF) (UniProt P20871)
# [18] = target: HIV-1 JR-CSF Env I414A (HIV-1 (isolate JR-CSF)) (UniProt P20871)
# [19] = target: HIV-1 JR-CSF Env I415A (HIV-1 (isolate JR-CSF)) (UniProt P20871)
# [20] = target: HIV-1 JR-CSF Env I423A (HIV-1 (isolate JR-CSF)) (UniProt P20871)
# [21] = target: HIV-1 JR-CSF Env K305A (HIV-1 JR-CSF) (UniProt P20871)
# [22] = target: HIV-1 JR-CSF Env L416A (HIV-1 (isolate JR-CSF)) (UniProt P20871)
# [23] = target: HIV-1 JR-CSF Env N355A (HIV-1 isolate JR-CSF) (UniProt P20871)
# [24] = target: HIV-1 JR-CSF Env N396A (HIV-1 (isolate JR-CSF)) (UniProt P20871)
# [25] = target: HIV-1 JR-CSF Env N411A (HIV-1 (isolate JR-CSF)) (UniProt P20871)
# [26] = target: HIV-1 JR-CSF Env Q337A (HIV-1 isolate JR-CSF) (UniProt P20871)
# [27] = target: HIV-1 JR-CSF Env Q422A (HIV-1 (isolate JR-CSF)) (UniProt P20871)
# [28] = target: HIV-1 JR-CSF Env R304A (HIV-1 JR-CSF) (UniProt P20871)
# [29] = target: HIV-1 JR-CSF Env R315A (HIV-1 isolate JR-CSF) (UniProt P20871)
# [30] = target: HIV-1 JR-CSF Env R327A (HIV-1 isolate JR-CSF) (UniProt P20871)
# [31] = target: HIV-1 JR-CSF Env R350A (HIV-1 isolate JR-CSF) (UniProt P20871)
# [32] = target: HIV-1 JR-CSF Env S334A (HIV-1 isolate JR-CSF) (UniProt P20871)
# [33] = target: HIV-1 JR-CSF Env S387A (HIV-1 (isolate JR-CSF)) (UniProt P20871)
# [34] = target: HIV-1 JR-CSF Env S393A (HIV-1 (isolate JR-CSF)) (UniProt P20871)
# [35] = target: HIV-1 JR-CSF Env T202A (HIV-1 JR-CSF) (UniProt P20871)
# [36] = target: HIV-1 JR-CSF Env T319A (HIV-1 isolate JR-CSF) (UniProt P20871)
# [37] = target: HIV-1 JR-CSF Env T341A (HIV-1 isolate JR-CSF) (UniProt P20871)
# [38] = target: HIV-1 JR-CSF Env V292A (HIV-1 JR-CSF) (UniProt P20871)
# [39] = target: HIV-1 JR-CSF Env W395A (HIV-1 (isolate JR-CSF)) (UniProt P20871)
# [40] = target: HIV-1 MGRM-A-010 envelope glycoprotein (Env) (HIV-1)
# [41] = target: HIV-1 MGRM-C-026 envelope glycoprotein (Env) (HIV-1)
# [42] = target: HIV-1 MGRM-C-028 envelope glycoprotein (Env) (HIV-1)
binder,measurement,setting,value
B1,Median IC50 against viruses neutralized with an IC50 <50 µg/ml,[1],0.02 µg/mL
same,Median IC50 against viruses neutralized with an IC50 <50 µg/ml,[2],1.83 µg/mL
same,Median IC50 against viruses neutralized with an IC50 <50 µg/ml,[3],0.09 µg/mL
same,IC50 neutralization,[4],0.0262 µg/mL
same,IC50 neutralization,[5],7.31 µg/mL
same,IC50 neutralization,[6],0.0359 µg/mL
same,"IC50 (µg/mL), pseudovirus neutralization",[7],0.004 µg/mL
same,"IC50 (µg/mL), pseudovirus neutralization",[8],35.5 µg/mL
same,"IC50 (µg/mL), pseudovirus neutralization",[9],0.012 µg/mL
same,"IC50 (µg/mL), pseudovirus neutralization",[10],0.177 µg/mL
same,"IC50 (µg/mL), pseudovirus neutralization",[11],0.014 µg/mL
same,Fold IC50 increase relative to wild-type,[12],0.5 fold
same,Fold IC50 increase relative to wild-type,[13],1.4 fold
same,Fold IC50 increase relative to wild-type,[14],0.7 fold
same,Fold IC50 increase relative to wild-type,[15],5 fold
same,Fold IC50 increase relative to wild-type,[16],1 fold
same,Fold IC50 increase relative to wild-type,[17],0.9 fold
same,Fold IC50 increase relative to wild-type,[18],0.3 fold
same,Fold IC50 increase relative to wild-type,[19],0.3 fold
same,Fold IC50 increase relative to wild-type,[20],5 fold
same,Fold IC50 increase relative to wild-type,[21],1.9 fold
same,Fold IC50 increase relative to wild-type,[22],0.8 fold
same,Fold IC50 increase relative to wild-type,[23],1.2 fold
same,Fold IC50 increase relative to wild-type,[24],1.6 fold
same,Fold IC50 increase relative to wild-type,[25],0.5 fold
same,Fold IC50 increase relative to wild-type,[26],0.8 fold
same,Fold IC50 increase relative to wild-type,[27],1.2 fold
same,Fold IC50 increase relative to wild-type,[28],1.9 fold
same,Fold IC50 increase relative to wild-type,[29],0.9 fold
same,Fold IC50 increase relative to wild-type,[30],2.1 fold
same,Fold IC50 increase relative to wild-type,[31],0.6 fold
same,Fold IC50 increase relative to wild-type,[32],0.8 fold
same,Fold IC50 increase relative to wild-type,[33],0.6 fold
same,Fold IC50 increase relative to wild-type,[34],0.5 fold
same,Fold IC50 increase relative to wild-type,[35],0.8 fold
same,Fold IC50 increase relative to wild-type,[36],1.1 fold
same,Fold IC50 increase relative to wild-type,[37],1.1 fold
same,Fold IC50 increase relative to wild-type,[38],3.3 fold
same,Fold IC50 increase relative to wild-type,[39],0.9 fold
same,IC50 neutralization,[40],0.0055 µg/mL
same,IC50 neutralization,[41],0.0106 µg/mL
same,IC50 neutralization,[42],5.78 µg/mL
B2,Median IC50 against viruses neutralized with an IC50 <50 µg/ml,[1],0.02 µg/mL
same,Median IC50 against viruses neutralized with an IC50 <50 µg/ml,[2],0.01 µg/mL
same,Median IC50 against viruses neutralized with an IC50 <50 µg/ml,[3],0.02 µg/mL
same,IC50 neutralization,[4],0.0303 µg/mL
same,IC50 neutralization,[5],0.18 µg/mL
same,IC50 neutralization,[6],0.0328 µg/mL
same,"IC50 (µg/mL), pseudovirus neutralization",[7],0.002 µg/mL
same,"IC50 (µg/mL), pseudovirus neutralization",[8],> 50 µg/mL
same,"IC50 (µg/mL), pseudovirus neutralization",[9],0.028 µg/mL
same,"IC50 (µg/mL), pseudovirus neutralization",[10],0.192 µg/mL
same,"IC50 (µg/mL), pseudovirus neutralization",[11],0.565 µg/mL
same,Fold IC50 increase relative to wild-type,[12],0.7 fold
same,Fold IC50 increase relative to wild-type,[13],2.8 fold
same,Fold IC50 increase relative to wild-type,[14],0.3 fold
same,Fold IC50 increase relative to wild-type,[15],5.9 fold
same,Fold IC50 increase relative to wild-type,[16],1.6 fold
same,Fold IC50 increase relative to wild-type,[17],0.4 fold
same,Fold IC50 increase relative to wild-type,[18],0.3 fold
same,Fold IC50 increase relative to wild-type,[19],0.4 fold
same,Fold IC50 increase relative to wild-type,[20],1.5 fold
same,Fold IC50 increase relative to wild-type,[21],1.9 fold
same,Fold IC50 increase relative to wild-type,[22],0.9 fold
same,Fold IC50 increase relative to wild-type,[23],0.5 fold
same,Fold IC50 increase relative to wild-type,[24],1.2 fold
same,Fold IC50 increase relative to wild-type,[25],0.5 fold
same,Fold IC50 increase relative to wild-type,[26],0.5 fold
same,Fold IC50 increase relative to wild-type,[27],0.8 fold
same,Fold IC50 increase relative to wild-type,[28],0.7 fold
same,Fold IC50 increase relative to wild-type,[29],0.7 fold
same,Fold IC50 increase relative to wild-type,[30],1.7 fold
same,Fold IC50 increase relative to wild-type,[31],0.5 fold
same,Fold IC50 increase relative to wild-type,[32],> 50 fold
same,Fold IC50 increase relative to wild-type,[33],0.9 fold
same,Fold IC50 increase relative to wild-type,[34],0.6 fold
same,Fold IC50 increase relative to wild-type,[35],1.2 fold
same,Fold IC50 increase relative to wild-type,[36],0.4 fold
same,Fold IC50 increase relative to wild-type,[37],0.3 fold
same,Fold IC50 increase relative to wild-type,[38],1.7 fold
same,Fold IC50 increase relative to wild-type,[39],0.4 fold
same,IC50 neutralization,[40],0.492 µg/mL
same,IC50 neutralization,[41],0.0031 µg/mL
same,IC50 neutralization,[42],0.443 µg/mL
